From patent US20180318382 (published 2018)
Read-outs that look alike come from different tables or passages of the source. Where no end group is shown, it is not given here.

T1: TIP-1 (human, UniProt O14907)
T1 chain: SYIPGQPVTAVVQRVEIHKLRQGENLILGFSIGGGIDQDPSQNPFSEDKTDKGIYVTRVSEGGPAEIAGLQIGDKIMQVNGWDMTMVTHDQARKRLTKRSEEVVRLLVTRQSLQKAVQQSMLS

T2: NHERF-1 PDZ1 (human, UniProt O14745)
T2 chain: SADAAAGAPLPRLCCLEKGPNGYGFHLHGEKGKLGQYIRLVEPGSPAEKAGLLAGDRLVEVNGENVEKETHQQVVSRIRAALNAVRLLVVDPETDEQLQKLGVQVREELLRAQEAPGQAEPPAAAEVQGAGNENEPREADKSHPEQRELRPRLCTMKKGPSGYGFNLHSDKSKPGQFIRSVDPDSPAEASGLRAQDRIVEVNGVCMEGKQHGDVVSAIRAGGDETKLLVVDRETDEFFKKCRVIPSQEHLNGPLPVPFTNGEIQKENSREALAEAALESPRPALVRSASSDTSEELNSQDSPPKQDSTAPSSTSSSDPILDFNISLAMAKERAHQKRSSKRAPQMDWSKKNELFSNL

T3: NHERF-1 PDZ2 (human, UniProt O14745)
T3 chain: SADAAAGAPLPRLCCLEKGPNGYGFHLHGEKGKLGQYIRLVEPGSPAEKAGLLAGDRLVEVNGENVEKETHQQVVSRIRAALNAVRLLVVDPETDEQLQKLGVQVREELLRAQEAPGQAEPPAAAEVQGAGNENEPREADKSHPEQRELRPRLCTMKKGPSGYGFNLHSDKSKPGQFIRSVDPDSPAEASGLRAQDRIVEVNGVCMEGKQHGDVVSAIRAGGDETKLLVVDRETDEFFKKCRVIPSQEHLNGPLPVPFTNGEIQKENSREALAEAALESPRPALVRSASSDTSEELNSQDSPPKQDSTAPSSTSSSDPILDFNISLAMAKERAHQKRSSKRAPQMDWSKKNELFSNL


Experiments:
[1] = target: T4, CAL PDZ (human, UniProt Q9HD26); test: FP, competition
[2] = target: T1, TIP-1; test: FP, competition
[3] = target: T2, NHERF-1 PDZ1; test: FP, competition
[4] = target: T3, NHERF-1 PDZ2; test: FP, competition
[5] = target: T4, CAL PDZ

Row | Ki [1] | Ki [2] | Ki [3] | Ki [4] | Ki [5] | Binder
1 | 1.17 µM | 0.057 µM | 2.8 µM | 208 µM |  | ANSRWQVTRV
2 | 1.22 µM | 0.258 µM |  |  |  | Ac-WPVTRV [Ac-WPVTRV]
3 | 1.13 µM | 0.057 µM | 2.8 µM |  |  | ANSRWQVTRV [ANSRWQVTRV (second entry)]
4 |  |  |  |  | ~1 µM | Ac-WQVTRV [kCAL01]
5 | 4.42 µM | > 5000 µM |  |  |  | Ac-LPVTRV [Ac-LPVTRV]
6 |  | > 5000 µM | > 5000 µM | > 5000 µM |  | ANSRLPTSKI [ANSRLPTS[K-AEBA]I]
7 |  | > 5000 µM | > 5000 µM | > 5000 µM |  | ANSRLPTSK(Ac)I [ANSRLPTS[Ac-K]I]
8 |  | > 5000 µM | > 5000 µM | > 5000 µM |  | ANSRLPTSII [iCAL42 ANSRLPTSII]
